This passage reports Km and kcat results from PMC5120207, “An archaeal ADP-dependent serine kinase involved in cysteine biosynthesis and serine metabolism” (Nature Communications, 2016).

Substrate in data set [1]: Nc1ncnc2c1ncn2[C@@H]1O[C@H](COP(=O)(O)OP(=O)(O)O)[C@@H](O)[C@H]1O
Briefly: HPLC of AMP formed from ADP. In kind it is biochemical, Thermococcus kodakarensis. The following applies: L-serine co-substrate (50 mM in standard assay), MgCl2, 50 mM Tris-HCl pH 7.5, 85 °C.

Substrate in data set [2]: N[C@@H](CO)C(=O)O
Briefly: purified protein. The conditions noted are these: ADP co-substrate, MgCl2, 50 mM Tris-HCl pH 7.5, 85 °C (standard assay; 20 mM each ADP and MgCl2).

B1: TK0378 protein; ADP-dependent Ser kinase (SerK; Tk-SerK) (Thermococcus kodakarensis KOD1) (protein)
chain: MGVEKVPKYDIPTKKVDYVFIELDKMKPHEQLVQKELEAFIESVTGSGIFWKPMLLAKVPGEDMYLIVDGHHRWAGLQKLGAKRAPSVILDYFSDDVKVYTWYPAFKGDLNEVVERLKKEGLEVIEDPEAEEKAERGEIAFALVGEKSFAIPGGLEEQKKVSKVLDEMSVEGKIELIYYGLKEDAREDMAKGEIDYVFIRKAPTKEEVMELVKRGEVYSPKTTRHVLPFNPDKIDVKLEELF
notes: full coding region in pET21a(+) (NdeI/EcoRI), no tag mentioned; E. coli BL21-CodonPlus(DE3)-RIL; heat treatment, Resource Q, Superdex 200
As a reminder, the Km is the substrate concentration at which the rate is half of its maximum. As usually defined, the kcat is the maximal rate divided by the concentration of active sites. On to B1, for which, in data set [1], the Km was 2.4 ± 0.5 mM and the kcat was 204 ± 12 s⁻¹. Besides, in data set [2], the Km worked out at 5.1 ± 0.5 mM and the kcat came out at 218 ± 5 s⁻¹.
